Test results published in patent US20060257938A1, “Method of screening for drugs that block ligand binding to a lipid binding protein” (priority 2005, published 2006).
Substitutions are numbered along the chain they refer to. Several values for one entry are separate records, joined by “and”; a condition that tells them apart may be missing. Equal values may be shown once.

B1: 104Y1, 72A (protein, listed as Rattus norvegicus)
chain: AFDGTWKVDRNENYEKFMEKMGINVVKRKLGAHDNLKLTITQEGNKFTVKESSNFRNIDVVFELGVDFAYSAADGTELTGTWTMEGNKLVGKFKRVDNGKELIYVREISGNELIQTYTYEGVEAKRIFKKE
modifications: PEPTIDE (1)...(131) wild-type rat intestinal fatty acid binding protein
B2: 106A1, 72A (protein, listed as Rattus norvegicus)
chain: B1 chain with Y104A, R106A
modifications: PEPTIDE (1)...(131) wild-type rat intestinal fatty acid binding protein
B3: 106C2, 72A (protein, listed as Rattus norvegicus)
chain: B1 chain with Y104A, R106C
modifications: PEPTIDE (1)...(131) wild-type rat intestinal fatty acid binding protein
B4: 106D3, 72A (protein, listed as Rattus norvegicus)
chain: B1 chain with Y104A, R106D
modifications: PEPTIDE (1)...(131) wild-type rat intestinal fatty acid binding protein
B5: 106F1, 72A (protein, listed as Rattus norvegicus)
chain: B1 chain with Y104A, R106F
modifications: PEPTIDE (1)...(131) wild-type rat intestinal fatty acid binding protein
B6: 106H2, 72A (protein, listed as Rattus norvegicus)
chain: B1 chain with Y104A, R106H
modifications: PEPTIDE (1)...(131) wild-type rat intestinal fatty acid binding protein
B7: 106I3, 72A (protein, listed as Rattus norvegicus)
chain: B1 chain with Y104A, R106I
modifications: PEPTIDE (1)...(131) wild-type rat intestinal fatty acid binding protein
B8: 106L3, 72A (protein, listed as Rattus norvegicus)
chain: B1 chain with Y104A, R106L
modifications: PEPTIDE (1)...(131) wild-type rat intestinal fatty acid binding protein
B9: 106N1, 72A (protein, listed as Rattus norvegicus)
chain: B1 chain with Y104A, R106N
modifications: PEPTIDE (1)...(131) wild-type rat intestinal fatty acid binding protein
B10: 106Q, 72A (protein, listed as Rattus norvegicus)
chain: B1 chain with Y104A, R106Q
modifications: PEPTIDE (1)...(131) wild-type rat intestinal fatty acid binding protein
B11: 106S2, 72A (protein, listed as Rattus norvegicus)
chain: B1 chain with Y104A, R106S
modifications: PEPTIDE (1)...(131) wild-type rat intestinal fatty acid binding protein
B12: 106T2, 72A (protein, listed as Rattus norvegicus)
chain: B1 chain with Y104A, R106T
modifications: PEPTIDE (1)...(131) wild-type rat intestinal fatty acid binding protein
B13: 106V1, 72A (protein, listed as Rattus norvegicus)
chain: B1 chain with Y104A, R106V
modifications: PEPTIDE (1)...(131) wild-type rat intestinal fatty acid binding protein
B14: 106W, 72A (protein, listed as Rattus norvegicus)
chain: B1 chain with Y104A, R106W
modifications: PEPTIDE (1)...(131) wild-type rat intestinal fatty acid binding protein
B15: 106Y1, 72A (protein, listed as Rattus norvegicus)
chain: B1 chain with Y104A, R106Y
modifications: PEPTIDE (1)...(131) wild-type rat intestinal fatty acid binding protein
B16: 113M, 72A (protein, listed as Rattus norvegicus)
chain: B1 chain with Y104A, L113M
modifications: PEPTIDE (1)...(131) wild-type rat intestinal fatty acid binding protein
B17: 115A1, 72A (protein, listed as Rattus norvegicus)
chain: B1 chain with Y104A, Q115A
modifications: PEPTIDE (1)...(131) wild-type rat intestinal fatty acid binding protein

assay: Probe fluorescence ratio response to arachidonic acid relative to ADIFAB2; assay type: binding; settings: arachidonic acid; response relative to ADIFAB2
Method in brief: (§1)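 Each fatty acid's response was expressed relative to ADIFAB2, the rI-FABP-L72A probe, as ΔR/ΔRreference. ΔR is the change in the background-corrected two-wavelength intensity ratio R=Fλ1/Fλ2 from its analyte-free baseline R0. Emission was read near about 420-480 nm for unbound and about 495-580 nm for FFA-bound probe.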

Molecule | DR/DR AA
B1 | 0.36
B2 | 0.39
B3 | 0.17
B4 | 0.66
B5 | 0.75
B6 | 0.75
B7 | 0.59
B8 | 0.84
B9 | 0.38
B10 | 0.37
B11 | 0.32
B12 | 0.43
B13 | 0.61
B14 | 1.11 and 1.106
B15 | 0.57
B16 | 1.33
B17 | 1.17

assay: Probe fluorescence ratio response to linolenic acid relative to ADIFAB2; assay type: binding; settings: response relative to ADIFAB2
Method in brief: as §1

Molecule | DR/DR LNA
B1 | 0.28
B2 | 0.52
B3 | 0.22
B4 | 0.77
B5 | 0.71
B6 | 0.73
B7 | 0.71
B8 | 0.84
B9 | 0.44
B10 | 0.38
B11 | 0.40
B12 | 0.58
B13 | 0.82
B14 | 1.03
B15 | 0.60
B16 | 1.38
B17 | 1.26

assay: Probe fluorescence ratio response to linoleic acid relative to ADIFAB2; assay type: binding; settings: response relative to ADIFAB2
Method in brief: as §1

Molecule | DR/DR LA
B1 | 0.26
B2 | 0.51
B3 | 0.20
B4 | 0.80
B5 | 0.78
B6 | 0.78
B7 | 0.68
B8 | 0.87
B9 | 0.45
B10 | 0.36
B11 | 0.36
B12 | 0.47
B13 | 0.82
B14 | 1.04 and 1.042
B15 | 0.61
B16 | 1.46
B17 | 1.22

assay: Probe fluorescence ratio response to oleic acid relative to ADIFAB2; assay type: binding; settings: response relative to ADIFAB2
Method in brief: as §1

Molecule | DR/DR OA
B1 | 0.24
B2 | 0.60
B3 | 0.22
B4 | 0.64
B5 | 0.78
B6 | 0.82
B7 | 0.72
B8 | 0.87
B9 | 0.50
B10 | 0.39
B11 | 0.48
B12 | 0.53
B13 | 0.84
B14 | 0.99 and 0.991
B15 | 0.60
B16 | 1.42
B17 | 1.20

assay: Probe fluorescence ratio response to palmitic acid relative to ADIFAB2; assay type: binding; settings: response relative to ADIFAB2
Method in brief: as §1

Molecule | DR/DR PA
B1 | 0.14
B2 | 0.16
B3 | 0.09
B4 | 0.26
B5 | 0.38
B6 | 0.33
B7 | 0.29
B8 | 0.43
B9 | 0.15
B10 | 0.18
B11 | 0.15
B12 | 0.23
B13 | 0.32
B14 | 0.41 and 0.407
B15 | 0.27
B16 | 1.19
B17 | 1.11
